Results published in patent US20250277029A1 (Amgen, published 2025).
Changes are numbered by the printed parent chain. Names may count otherwise.

B1: LIBC680562-1 (yeast-displayed Fab) (Fab, V domains shown)
VH: QVQLQESGPGLVKPSQTLSLTCTVSGGSIRRGGDYWAWIRQHPGKGLEWIGHIYQTGSTNYNPRFKGRATISVNTYKNQFSLKLSSVTAADTAVYYCARNYDTLTGYSYYYYGMDVWGQGTTVTVSS
VL: DIQMTQSPSSLSASVGDRVTITCRASQSISSYLNWYQQKPGKAPKLLIYSARRLSSGVPSRFSGSGSGTDFTLTISSLQPEDFATYYCQQYAKSPITFGGGTKVEIKR
B2: LIBC681737-1 (yeast-displayed Fab) (Fab, V domains shown)
VH: B1 VH with I53V, Q55Y, G67D, L104V
VL: B1 VL with S12P, S55A, A92Y, K93H, S94P
notes: Original yeast clone without the LC P12S germline reversion; Monovalent Fab on yeast
B3: LIBC680800-1 (yeast-displayed Fab) (Fab, V domains shown)
VH: B1 VH
VL: B1 VL with R53A, A92R, S94F, I96L
B4: LIBC681594-1 (yeast-displayed Fab) (Fab, V domains shown)
VH: B1 VH
VL: B1 VL with S50K, R53K, Y91F, A92G, K93S, S94M, I96L
B5: LIBC680773-1 (yeast-displayed Fab) (Fab, V domains shown)
VH: B1 VH with I53V, Q55Y, G67D, L104V
VL: B1 VL with S50K, R53L, A92S, K93R, S94L, I96L
B6: LIBC680812-1 (yeast-displayed Fab) (Fab, V domains shown)
VH: B1 VH with A37G, I53V, N60K, R64S, G67D
VL: B1 VL with A92R, K93S, S94Y
B7: LIBC524049-1 (antibody, V domains shown)
VH: B1 VH with A37S, Q55Y, N60A, R64S, F65L, G67S, N100D, T103I
VL: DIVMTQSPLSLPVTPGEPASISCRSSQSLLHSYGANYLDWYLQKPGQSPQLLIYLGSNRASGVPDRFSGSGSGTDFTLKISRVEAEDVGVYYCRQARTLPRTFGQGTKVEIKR
notes: Expressed as IgG1 SEFL2 mAb
B8: LIBC527997-1 (antibody, V domains shown)
VH: B1 VH
VL: DIQMTQSPSSLSASVGDRVTITCRASQSISNYLNWYQQKPGKAPKLLIYAASSLHSGVPSRFSGSGSGTDFTLTISSLQPEDFASYYCQQYQSYPLTFGQGTKVEIKR
notes: Expressed as IgG1 SEFL2 mAb
B9: LIBC527919-1 (antibody, V domains shown)
VH: B1 VH with I53V, N60A, R64N, G67D, T103A, T105S
VL: B8 VL with M4L, S30I, N31S, H55R, S85T, Q92S, S93N, Q100G, K103R
notes: Expressed as IgG1 SEFL2 mAb
B10: LIBC680574-1 (yeast-displayed Fab) (Fab, V domains shown)
VH: B1 VH with I53V, Q55Y, N60K, R64S, G67D
VL: B1 VL with S50G, S55G, A92S, K93S, S94L, I96V
B11: LIBC681593-1 (yeast-displayed Fab) (Fab, V domains shown)
VH: B1 VH
VL: B1 VL with S50N, S55G, A92R, K93S, I96V
B12: LIBC527997-1 (antibody, IgG1, V domains shown)
VH: B1 VH
VL: B8 VL
B13: LIBC527814-1 (antibody, IgG1, V domains shown)
VH: B1 VH with A37G, I53V, N60K, R64S, G67D
VL: B8 VL with S10T
B14: LIBC527919-1 (antibody, IgG1, V domains shown)
VH: B1 VH with I53V, N60A, R64N, G67D, T103A, T105S
VL: B8 VL with M4L, S30I, N31S, H55R, S85T, Q92S, S93N, Q100G, K103R
B15: LIBC523797-1 (antibody, IgG1, V domains shown)
VH: B1 VH with A37S, I53V, Q55Y, N60K, R64N, N100D, T103I
VL: DIVMTQSPLSLPVTPGEPASISCRSSQSLLTSYGINYVDWYLQKPGQSPQLLIYQGSNRASGVPDRFSGSGSGTDFTLKISRVEAEDVGVYYCRQAVGLPRTFGQGTKVEIKR

target: T1, huCB1 nanodisc (CB1-ND) (human, UniProt P21554 99-414); test: flow cytometry, yeast-displayed Fab, 0.2 nM CB1-ND, after background subtraction
T1 construct: The His-tagged CB1 is embedded in a POPC lipid nanodisc with MSP1D1 scaffold protein (molar ratio 480:8:1); also called huCB1-ND; #CB1-008
T1 sequence (P21554 99-414 limits assumed): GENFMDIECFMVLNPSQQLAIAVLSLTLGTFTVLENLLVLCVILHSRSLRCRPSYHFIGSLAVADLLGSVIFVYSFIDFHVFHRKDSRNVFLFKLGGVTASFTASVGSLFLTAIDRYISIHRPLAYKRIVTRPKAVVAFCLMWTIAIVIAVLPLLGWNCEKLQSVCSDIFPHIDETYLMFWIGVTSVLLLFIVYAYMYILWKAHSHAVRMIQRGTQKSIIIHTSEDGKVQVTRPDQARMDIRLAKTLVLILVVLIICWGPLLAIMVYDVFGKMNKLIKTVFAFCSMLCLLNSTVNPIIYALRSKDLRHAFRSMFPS

Binder | Relative binding fold change compared to LIBC528116 (Fab) [fold]
B1 | 3.34
B2 | 1.89
B3 | 2.52
B4 | 3.56
B5 | 2.4
B6 | 2.23

target: T2, human cannabinoid receptor 1 (huCB1), full length, expressed on cells (human, UniProt P21554 1-472); test: KinExA on-cell ranking, HEK 293T cells expressing full length CB1; %IFF of LIBC523661 divided by %IFF of antibody
T2 construct: Used for all assays on cells: stably transfected CHO / CHOK1 cells (cAMP assays) and transiently transfected HEK 293T cells (KinExA, FACS); also called Full length hu CB1; wt huCB1
T2 sequence (P21554 whole entry): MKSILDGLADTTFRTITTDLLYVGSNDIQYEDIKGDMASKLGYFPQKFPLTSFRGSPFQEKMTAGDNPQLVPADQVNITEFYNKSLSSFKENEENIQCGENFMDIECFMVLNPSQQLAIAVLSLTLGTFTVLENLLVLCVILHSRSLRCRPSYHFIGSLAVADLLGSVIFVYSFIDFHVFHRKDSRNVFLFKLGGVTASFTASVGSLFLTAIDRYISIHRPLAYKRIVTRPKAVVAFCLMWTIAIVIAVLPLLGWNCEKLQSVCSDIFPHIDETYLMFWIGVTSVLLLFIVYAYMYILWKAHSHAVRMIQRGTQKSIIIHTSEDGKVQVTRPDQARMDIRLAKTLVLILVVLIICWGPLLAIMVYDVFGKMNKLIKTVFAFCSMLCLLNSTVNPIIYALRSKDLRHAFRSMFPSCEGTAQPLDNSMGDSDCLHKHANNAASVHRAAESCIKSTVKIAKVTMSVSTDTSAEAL

Binder | Relative binding (KinExA, on cell; vs LIBC523661 mAb) [ratio]
B7 | 1.5
B8 | 2.1
B9 | 2.9

target: T3, GFP-fused huCB1 in styrene maleic acid lipoparticles (CB1-SMALP-GFP) (human, UniProt P21554 1-472); test: flow cytometry, yeast-displayed Fab, 2.5 nM CB1-SMALP-GFP, after background subtraction
T3 construct: Prepared as described in Luna V. et al. 2018; also called huCB1-GFP-SMALP; GFP-tagged huCB1-SMALP; not shown: GFP fused to huCB1
T3 sequence (P21554 whole entry, the tested form may be a part): as the sequence (P21554 whole entry) above

Binder | Relative binding fold change compared to LIBC528116 (Fab) [fold]
B1 | 1.94
B10 | 1.72
B2 | 1.94
B3 | 1.76
B4 | 2.57
B11 | 2.37
B5 | 1.9
B6 | 1.71

target: T2, human cannabinoid receptor 1 (huCB1), …; test: cell-based or functional assay

Binder | Mean IC50 (nM), cAMP antagonist assay [nM] | Mean IC50, -fold vs Rimo [fold vs Rimonabant] | n = 1 IC50 (nM), cAMP antagonist assay [nM] | n = 1 IC50, -fold vs Rimo [fold vs Rimonabant] | n = 2 IC50 (nM), cAMP antagonist assay [nM] | n = 2 IC50, -fold vs Rimo [fold vs Rimonabant]
B7 | 2.87 | 0.96 | 4.41 | 1.05 | 1.34 | 0.75
B8 | 2.97 | 0.99 | 4.37 | 1.04 | 1.57 | 0.88
B9 | 3.44 | 1.15 | 5.09 | 1.21 | 1.8 | 1

target: T4, GFP-fused huCB1-SMALP (human CB1 in styrene maleic acid lipoparticles) (human, UniProt P21554 1-472); test: flow cytometry, yeast-displayed IgG, GFP MFI
T4 construct: Prepared as in Luna V. et al. 2018; also called huCB1-GFP-SMALP; wtCB1-SMALP; not shown: GFP fusion
T4 sequence (P21554 whole entry, the tested form may be a part): as the sequence (P21554 whole entry) above

Binder | 100 nM huCB1-GFP-SMALP binding (normalized to 10D10N35Y) [fold]
B12 | 6.63
B13 | 6.44
B14 | 4.15

target: T5, mouse CB1 (mouse, UniProt P47746 1-473); test: binding to muCB1, fold over mock (method not described)
T5 construct: also called muCB1; murine CB1
T5 sequence (P47746 whole entry): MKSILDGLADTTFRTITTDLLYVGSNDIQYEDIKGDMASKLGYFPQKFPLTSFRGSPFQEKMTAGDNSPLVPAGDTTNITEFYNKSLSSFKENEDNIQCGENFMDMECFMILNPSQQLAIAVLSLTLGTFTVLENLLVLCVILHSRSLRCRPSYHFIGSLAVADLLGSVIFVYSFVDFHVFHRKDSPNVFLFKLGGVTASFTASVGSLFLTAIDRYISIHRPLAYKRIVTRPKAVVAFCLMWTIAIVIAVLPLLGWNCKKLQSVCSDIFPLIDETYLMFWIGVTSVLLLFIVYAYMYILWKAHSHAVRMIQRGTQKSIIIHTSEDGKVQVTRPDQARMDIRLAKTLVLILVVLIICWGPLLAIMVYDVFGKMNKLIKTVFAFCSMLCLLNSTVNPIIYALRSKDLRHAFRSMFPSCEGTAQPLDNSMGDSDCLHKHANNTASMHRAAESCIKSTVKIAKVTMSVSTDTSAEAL

Binder | Fold over mock [fold]
B12 | 1
B13 | 1.2
B14 | 1

target: T6, human cannabinoid receptor type 2 (CB2) (human, UniProt P34972 1-360); test: binding to huCB2, fold over mock (method not described)
T6 construct: also called huCB2; full length hu CB2
T6 sequence (P34972 whole entry): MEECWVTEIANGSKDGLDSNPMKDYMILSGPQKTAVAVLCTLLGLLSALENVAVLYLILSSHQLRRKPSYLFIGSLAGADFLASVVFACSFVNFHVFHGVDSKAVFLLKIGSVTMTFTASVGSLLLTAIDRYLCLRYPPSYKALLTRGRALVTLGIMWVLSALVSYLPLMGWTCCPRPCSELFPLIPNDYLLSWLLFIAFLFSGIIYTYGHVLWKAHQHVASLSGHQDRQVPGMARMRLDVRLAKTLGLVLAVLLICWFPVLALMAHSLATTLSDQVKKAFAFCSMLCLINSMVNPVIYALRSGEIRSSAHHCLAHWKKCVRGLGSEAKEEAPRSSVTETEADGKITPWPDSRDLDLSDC

Binder | Fold over mock [fold]
B12 | 0.8
B13 | 0.9
B14 | 0.9

target: T2, human cannabinoid receptor 1 (huCB1), …; test: cell-based or functional assay; remark: another data set of the same source

Binder | IC50, nM (CP agonist) [nM]
B7 | 3.7
B8 | 2.5
B9 | 3

target: T5, mouse CB1; test: fold over mock (Table 14)

Binder | binding result
B12 | no binding
B13 | no binding
B15 | no binding
B14 | no binding

target: T6, human cannabinoid receptor type 2 (CB2); test: fold over mock (Table 14)

Binder | binding result
B12 | no binding
B13 | no binding
B15 | no binding
B14 | no binding

target: T4, GFP-fused huCB1-SMALP (human CB1 in …); test: flow cytometry, yeast-displayed IgG, GFP MFI; remark: another data set of the same source

Binder | 100 nM huCB1-SMALP binding (normalized to 10D10) [fold]
B15 | 7.01

target: T1, huCB1 nanodisc (CB1-ND); test: Octet BLI; antibody captured by anti-human Fc, CB1-nanodisc in solution, 1:1 model

Binder | Kd [nM] | koff [s⁻¹] | kon [M⁻¹ s⁻¹]
B7 | 15 | 0.000904 | 59000
B8 | 26 | 0.00136 | 51800
B9 | 60 | 0.00339 | 56200

target: empty nanodisc (Empty ND); test: flow cytometry, yeast-displayed Fab, 50 nM Empty ND, after background subtraction
Sequence (P02647 79-267): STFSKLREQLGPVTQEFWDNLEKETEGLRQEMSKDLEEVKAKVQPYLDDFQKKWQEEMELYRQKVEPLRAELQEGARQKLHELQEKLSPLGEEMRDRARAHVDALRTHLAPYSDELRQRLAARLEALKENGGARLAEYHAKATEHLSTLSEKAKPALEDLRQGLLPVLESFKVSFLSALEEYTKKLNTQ

Binder | Relative binding fold change compared to LIBC528116 (Fab) [fold]
B1 | 0.68
B10 | 0.72
B2 | 0.73
B3 | 0.78
B4 | 0.83
B11 | 0.91
B5 | 0.75
B6 | 0.74

target: T2, human cannabinoid receptor 1 (huCB1), …; test: cell-based or functional assay; remark: another data set of the same source

Binder | Mean IC50 (nM, n = 3), cAMP antagonist assay [nM]
B7 | 3.71
B8 | 2.54
B9 | 3.01

target: T7, empty-ND (nanodisc without CB1); test: flow cytometry, yeast-displayed IgG, binding/display ratio
T7 construct: its only protein is the nanodisc scaffold; also called Empty Nanodisc

Binder | 50.0 nM Empty Nanodisc binding (relative to 10D10N35Y) [fold]
B12 | 0.44
B13 | 0.61
B14 | 0.64

target: T8, His-tagged huCB1-ND (human CB1 in nanodisc) (human); test: as above
T8 construct: CB1 construct of Cell 167(3) (2016) 750-762 expressed in Sf9 cells; POPC:MSP1D1:CB1 480:8:1; also called CB1-nanodisc; huCB1-Nanodisc; not shown: histidine purification tag
T8 sequence (P21554 99-414): as the sequence (P21554 99-414 limits assumed) above

Binder | 0.200 nM huCB1-Nanodisc binding (relative to 10D10N35Y) [fold]
B12 | 6.38
B13 | 6.49
B14 | 5.22
